{
  "source": "patent US12006530B2",
  "about": "“Streptococcal proteases” (priority 2016, dated 2024)",
  "molecules": {"B1": {"name": "IgdEequi: IgdE isolated from S. equi strain ssp zooepidemicus #1, SEQ ID NO: 7 (protein, listed as Streptococcus equi)", "chain": "MEAWKHGSMEAWKHGSMEAWKHGRTLCKGLLLGLACGAISMSLVVKSTIVVADDVRLSEQSTVILDNTVSNLISEVKDELAKNHQDALEIYILGEGSPKYSGVSPDRLGDYIKDYKPVRLNGKVIHGRAFFMMKKEDQLISTKEEYDRIIAERFSNLEKFDYPTIHYTFNAELKDKYPYLSLILKASGLSLSDSINLGSTLGINGVTIHTQHLRIDNQFAYRYNGEDYKQDSHITFDRFKKNDDKLKELIATSGANQEGLTDAQRVKAYVLYMANHVDYDWDATRYNPDYLIFCQASDLFALTERNKAMCIGFSTAAARGLNLLGIPSYVTYGKNRDGVAHATIRAFYDKKWRTLDVTGVGRGKYTEEHYDNLNTHDYKIFDLTKETNVDLDRGYMEIYKDFEDWILSHNTKELLFINQDANIRNKVAKDVFKYIQEAEKQSLIDKYNEFIIRTSALKAEFKTDRLKEIVGSLVSQAQEELENIKHIEVMTEDEKDQFEYTLRNLGVYYSQCESANQ"}},
  "key": {"[1]": {"system": "rat IgG", "assay": "IgG cleavage by IgdE, SDS-PAGE", "type": "biochemical", "conditions": "purified polyclonal IgG"}, "[2]": {"system": "porcine IgG", "assay": "IgG cleavage by IgdE, SDS-PAGE", "type": "biochemical, pig", "conditions": "purified polyclonal IgG, reducing SDS-PAGE", "description": "(A) Schematic illustration of IgdE and the different rIgdE constructs with potential active site residues substitutions and the C-terminal truncation variant. The secretion signal peptide (residues 1-37) is marked in light grey, the transglutaminase domain is boxed and the potential active site residues and substitutions are indicated. (B) 3.3 μM porcine IgG was incubated for 16 h at 37° C. with soluble fractions of E. coli cells expressing different rIgdE constructs. The reaction was analyzed SDS-PAGE under reducing conditions. […] The weak protein band of 37 kDa is a contaminant present in lysate preparation and not related to IgdE activity.\n(§1) 0.5 mg/ml of porcine IgG (Sigma) in PBS or of other species (human, goat, cow, horse and mouse; all Sigma) were incubated with either crude extracts of induced E. coli carrying S. suis IgdE constructs mentioned above or 10 nM purified rIgdE for 16 h at 37° C. prior subjection to SDS-PAGE under either reducing or non-reducing conditions.\n(§2) Samples for SDS-PAGE were prepared with either reducing or non-reducing sample buffer and heated to 95° C. for 5 min. 12% SDS-PAGE was either stained with Coomassie blue (Sigma), Coomassie Fluor™ Orange Protein Gel Stain (Invitrogen) or blotted to Hybond-P PVDF membrane (GE Healthcare) for western blot analyses. Membranes were blocked with 5% dry milk powder in 0.1% PBS-Tween, followed by incubation with horse-radish peroxidase conjugated antibodies. Goat anti-pig IgG-HRP (Thermo Scientific) and goat anti-porcine IgM-HRP (Thermo Scientific) was diluted 1:25′000 and goat anti-porcine IgA-HRP (Thermo Scientific) was diluted 1:12′500. Membranes were thoroughly washed with 0.1% PBS-Tween prior to development with Amersham ECL Select Western blotting detection reagent (GE Healthcare) according to manufactures instruction and pictured by LAS4000 imaging system (Fujifilm)."}, "[3]": {"system": "equine IgG7", "assay": "Cleavage of recombinant equine IgG subtypes, SDS-PAGE", "type": "biochemical, horse", "conditions": "0.6 μM, 16 h at 37° C., reducing SDS-PAGE", "description": "(§3) 0.6 μM recombinant equine IgG subtypes or serum IgG were incubated for 16 h at 37° C. with (+) or without (−) the soluble fraction of E. coli cells expressing rIgdEequi. Reactions were analyzed by SDS-PAGE under reducing conditions. […] SDS-PAGE was either stained with Coomassie Fluor Orange Protein Gel Stain (A) or subjected to Western blot (B) analyses with Rabbit Anti-Horse IgG H&L (HRP) ab6921."}, "[4]": {"system": "equine IgG4", "assay": "Cleavage of recombinant equine IgG subtypes, SDS-PAGE", "type": "biochemical, horse", "conditions": "0.6 μM, 16 h at 37° C., reducing SDS-PAGE", "description": "as §3"}, "[5]": {"system": "equine IgG3", "assay": "Cleavage of recombinant equine IgG subtypes, SDS-PAGE", "type": "biochemical, horse", "conditions": "0.6 μM, 16 h at 37° C., reducing SDS-PAGE", "description": "as §3"}, "[6]": {"system": "equine IgG6", "assay": "Cleavage of recombinant equine IgG subtypes, SDS-PAGE", "type": "biochemical, horse", "conditions": "0.6 μM, 16 h at 37° C., reducing SDS-PAGE", "description": "as §3"}, "[7]": {"system": "equine IgG5", "assay": "Cleavage of recombinant equine IgG subtypes, SDS-PAGE", "type": "biochemical, horse", "conditions": "0.6 μM, 16 h at 37° C., reducing SDS-PAGE", "description": "as §3"}, "[8]": {"system": "equine IgG2", "assay": "Cleavage of recombinant equine IgG subtypes, SDS-PAGE", "type": "biochemical, horse", "conditions": "0.6 μM, 16 h at 37° C., reducing SDS-PAGE", "description": "as §3"}, "[9]": {"system": "equine IgG1", "assay": "Cleavage of recombinant equine IgG subtypes, SDS-PAGE", "type": "biochemical, horse", "conditions": "0.6 μM, 16 h at 37° C., reducing SDS-PAGE", "description": "as §3"}, "[10]": {"system": "cow IgG", "assay": "IgG cleavage by IgdE, SDS-PAGE", "type": "biochemical", "conditions": "purified polyclonal IgG, reducing SDS-PAGE", "description": "as §1, §2"}, "[11]": {"system": "mouse IgG", "assay": "IgG cleavage by IgdE, SDS-PAGE", "type": "biochemical", "conditions": "purified polyclonal IgG, reducing SDS-PAGE", "description": "as §1, §2"}, "[12]": {"system": "horse IgG", "assay": "IgG cleavage by IgdE, SDS-PAGE", "type": "biochemical", "conditions": "purified polyclonal IgG, reducing SDS-PAGE", "description": "as §1, §2"}, "[13]": {"system": "goat IgG", "assay": "IgG cleavage by IgdE, SDS-PAGE", "type": "biochemical", "conditions": "purified polyclonal IgG, reducing SDS-PAGE", "description": "as §1, §2"}, "[14]": {"system": "IgG", "assay": "IgG degrading cysteine protease activity: specificity as summarised", "type": "biochemical", "conditions": "summary statement", "excerpt": "Typically, polypeptides for use in accordance with the invention display immunoglobulin cysteine protease activity, and in particular IgG degrading cysteine protease activity. Preferably, the polypeptide cleaves IgG in the hinge region and more particularly in the hinge region of the heavy chain. Preferably, cleavage results in production of Fc and Fab fragments of IgG. Preferably the activity is specific for IgG. The IgG degrading cysteine protease activity may be determined by means of a suitable assay. For example, a test polypeptide may be incubated with IgG at a suitable temperature, such as 37° C. The starting materials and the reaction products may then be analysed by SDS PAGE to determine whether the desired IgG cleavage product is present. Typically this cleavage product is a 32 kDa fragment. Typically there is no further degradation of IgG after this first cleavage. The cleavage product may be subjected to N-terminal sequencing to verify that cleavage has occurred in the hinge region of IgG.\nThe IgG degrading cysteine protease activity of the polypeptides is generally IgG-specific in that the polypeptides may not degrade other classes of Ig, namely IgM, and IgA, when incubated with these immunoglobulins under conditions that permit cleavage of IgG."}, "[15]": {"system": "human IgG", "assay": "IgG cleavage by IgdE, SDS-PAGE", "type": "biochemical", "conditions": "purified polyclonal IgG, reducing SDS-PAGE", "description": "(A) rIgdEagalactiae was incubated with polyclonal IgG of six different species for 18 h at 37° C. and analyzed by SDS-PAGE under reducing conditions. Degradation products are indicated by asterisks (*). Images of different gels have been used to create the figure. (B) rIgdEagalactiae was incubated with human or bovine serum for 18 h in 37° C. and analyzed by SDS-PAGE under reducing conditions. Degradation products are indicated by asterisks (*). (C) Western Blot with crude extracts of rIgdEagalactiae incubated with human and porcine serum for 18 h in 37° C. Membrane was treated with antibodies against human and porcine polyclonal IgG respectively. Degradation products are indicated by asterisks (*). (D) rIgdEagalactiae was incubated with subclasses of human IgG as well as human IgA and IgM for 18 h in 37° C. and analyzed by SDS-PAGE under reducing conditions. Degradation products are indicated by asterisks (*). Images of different gels have been used to create the figure.\nas §1, §2"}, "[16]": {"system": "rabbit IgG", "assay": "IgG cleavage by IgdE, SDS-PAGE", "type": "biochemical", "conditions": "purified polyclonal IgG"}, "[17]": {"system": "IgG in equine serum", "assay": "Ig cleavage in equine serum, anti-IgG Western blot", "type": "biochemical, horse"}},
  "data": [
    {"molecule": "B1", "values": [
      {"measurement": "cleavage of polyclonal rat IgG", "setting": "[1]", "value": "No degradation product was observed"},
      {"measurement": "cleavage of polyclonal porcine IgG (32 kDa degradation product)", "setting": "[2]", "value": "No degradation product was observed"},
      {"measurement": "cleavage of recombinant equine IgG7 (32 kDa degradation product)", "setting": "[3]", "value": "cleaved"},
      {"measurement": "cleavage of recombinant equine IgG4", "setting": "[4]", "value": "No degradation product was observed"},
      {"measurement": "cleavage of recombinant equine IgG3", "setting": "[5]", "value": "No degradation product was observed"},
      {"measurement": "cleavage of recombinant equine IgG6", "setting": "[6]", "value": "No degradation product was observed"},
      {"measurement": "cleavage of recombinant equine IgG5", "setting": "[7]", "value": "No degradation product was observed"},
      {"measurement": "cleavage of recombinant equine IgG2", "setting": "[8]", "value": "No degradation product was observed"},
      {"measurement": "cleavage of recombinant equine IgG1", "setting": "[9]", "value": "No degradation product was observed"},
      {"measurement": "cleavage of polyclonal cow IgG", "setting": "[10]", "value": "No degradation product was observed"},
      {"measurement": "cleavage of polyclonal mouse IgG", "setting": "[11]", "value": "No degradation product was observed"},
      {"measurement": "cleavage of polyclonal horse IgG", "setting": "[12]", "value": "cleaved"},
      {"measurement": "cleavage of polyclonal goat IgG", "setting": "[13]", "value": "No degradation product was observed"},
      {"measurement": "immunoglobulin specificity of the IgG degrading cysteine protease activity", "setting": "[14]", "value": "specific for equine IgG, and specifically equine IgG7"},
      {"measurement": "cleavage of polyclonal human IgG (32 kDa degradation product)", "setting": "[15]", "value": "No degradation product was observed"},
      {"measurement": "cleavage of polyclonal rabbit IgG", "setting": "[16]", "value": "No degradation product was observed"},
      {"measurement": "cleavage of IgG in equine serum", "setting": "[17]", "value": "cleaved IgG in equine serum"}
    ]}
  ]
}
